Values of other authors in publication PMC7070747.

Tests used:
[1] = biological target: integrin αvβ3 (Homo sapiens) (UniProt P06756)
[2] = biological target: integrin αvβ5 (Homo sapiens) (UniProt P06756)
[3] = biological target: Fibronectin extra domain B EDB (Homo sapiens) (UniProt P02751)
Chain of UniProt P02751 (P02751 1266-1356): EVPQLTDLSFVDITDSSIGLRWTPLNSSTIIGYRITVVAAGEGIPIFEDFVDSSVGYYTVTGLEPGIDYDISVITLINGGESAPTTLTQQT

Kd [1] [nM]	Kd [2] [nM]	Kd [3] [nM]	Substance
18	62	–	iRGD
–	–	11000	ZD2
